Data set [1] has as its system #B1-1 anti-m6A monoclonal antibody (guinea pig (Hartley)). The data set is described as follows: SPR. The settings on record: m6A at position 6; SPR: Biacor T100, HBS-EP+ buffer, 30 ul/min, biotin-RNA at 20 RU on SA chip, antibody 0-27 nM, 1:1 fit; ELISA: PBS, 3 h, room temperature; UV-crosslink IP: …. (In general: ELISA stands for enzyme-linked immunosorbent assay.)
For data set [2], the system named is #B1-3 anti-m6A monoclonal antibody (guinea pig (Hartley)). The data set is described as follows: SPR. The conditions noted are these: m6A at position 6; SPR: Biacor T100, HBS-EP+ buffer, 30 ul/min, biotin-RNA at 20 RU on SA chip, antibody 0-27 nM, 1:1 fit; ELISA: PBS, 3 h, room temperature; UV-crosslink IP: ….
For data set [3] the test system is unchanged. Briefly: pull-down (protein A IP). The conditions noted are these: m6A at position 6; SPR: Biacor T100, HBS-EP+ buffer, 30 ul/min, biotin-RNA at 20 RU on SA chip, antibody 0-27 nM, 1:1 fit; ELISA: PBS, 3 h, room temperature; UV-crosslink IP: ….
Data set [4] shares this test system. Briefly: UV crosslinking, IP and RT truncation (footprinting). The conditions noted are these: 41 clones sequenced; m6A at position 14; SPR: Biacor T100, HBS-EP+ buffer, 30 ul/min, biotin-RNA at 20 RU on SA chip, antibody 0-27 nM, 1:1 fit; ELISA: PBS, 3 h, room temperature; UV-crosslink IP: ….

For orientation: Kd means the equilibrium constant for the complex coming apart. A low value points to higher affinity. Take NNNGGACNNN [m6A-oligo]: the figures for the dissociation constant Kd in data set [1] and in data set [2] were 2.5 nM and 6.5 nM, respectively. In addition, in data set [3], the binding signal (% immunoprecipitated) was 35.
“AUCAUCUUUCGGGACUGACCUGAAAUGAACCCUA [Snord-oligo (Snord2, 34 nt)]” displayed a binding signal (% RT truncations at m6A) in data set [4] of 68.

The values above are taken from publication PMC6774519.
